# Source: patent US12636342B2, “TARS derived from Akkermansia muciniphila or fragment thereof, and use thereof” (KOREA RESEARCH INSTITUTE OF BIOSCIENCE AND BIOTECHNOLOGY, priority 2020, dated 2026)
# B1: Akkermansia muciniphila-derived threonyl-tRNA synthetase (TARS) (protein)
# chain: MSEHKERKTLEERQQMSDLERLRHSCAHVLATAICRLWPDAQLAGGPAVDNGFYYDVELDHRISTEDFERIEEEMKKVVKENQVFQKEVISRADAMKMAESGELGALGPRSEPSRFKIDLLNDIPEDEEISLYRNGDFTDLCAGPHVGRTGNCKAFKIMSVASAFYKGDKNRPMLQRIYGTCFPNRTQLDEHLERLEEARRRDHRKLGRELGLFCIDESVGQGLILWKPKGALIRRSLQDFITEELDKLGYSQVYTPNIGKLDLYRTSGHFPYYQESQYAPIPERDAMEKLSQEGASCAELFNGLATGTIEGYMLKPMNCPHHIKIYANDAHSYRDLPVRLAEFGTVYRWEQSGELGGMTRVRGFTQDDAHIFCTPDQLAGEIRQCLGIVKTIFGTLGMTDYRVRLSMRDPESDKYVGSPENWDKAEQALREAAEWLGADYSEEAGEAAFYGPKIDFIVRDAIGREWQLGTVQVDYNLPERFDLHYTGADNKPHRPVMVHRAPFGSMERFTGLLIEHFEGKFPTWLSPEQVRVLPISDKVTDVAAAHRTALAARGVRVTVDETPDKIGAKIRNARLDRVPYMLVLGQREAEDGTVSVRHRDKGDLGAMPFEQFADLVAREIAERHISPVI
# modifications: Akkermansia muciniphila TARS
# Experiments:
# human macrophages (THP1) = assay: ELISA of immune cytokine secretion in LPS-treated THP1 (inflammatory environment); type: cell-based; conditions: THP1, LPS-induced inflammation, 0.1, 0.2, 0.5 μM, 24 h
# Description: To determine whether AmTARS affects immune cytokine secretion when cellular inflammation was induced, mouse bone marrow-derived macrophages BMDMs as mouse-derived immune cells and human macrophages THP1 as human-derived immune cells were cultured by way of the same method as in Example 2.
# Specifically, the cultured BMDMs and THP1 were treated with lipopolysaccharide (LPS) to induce an inflammatory response and were simultaneously treated with AmTARS at 0.1 μM, 0.2 μM, and 0.5 μM for 24 h to obtain cell cultures. The obtained cell cultures were analyzed for immune cytokine secretion by way of the same method as in Example 2.
# [1] = system: mouse model of dextran sulfate sodium (DSS)-induced colitis; assay: DSS-induced colitis (inflammatory bowel disease) mouse model, intraperitoneal administration; type: in vivo; conditions: for distribution of B cells in the colon: normal mice
# Description: We evaluated the anti-inflammatory function of AmTARS in a mouse model of dextran sulfate sodium (DSS)-induced colitis. First, we assessed dose-dependent responses (i.e., changes in body weight and colon length) to intraperitoneal (i.p.) administration of AmTARS (0.05-0.4 mg/kg) once every other day for 10 days (FIG. 10A).
# The disease activity score was calculated by adding up scores ranging from 0 to 4 points for each item of bloody stool, diarrhea, and weight loss, and the epithelial damage score was calculated by assigning 0 to 4 points according to the degree of colon tissue damage.
# Next, to measure IgA, mouse feces were collected and diluted in PBS containing a protein inhibitor, and then a supernatant with impurities removed was obtained, and 100 μL was placed in each well of a 96-well plate to perform protein coating at 4° C. for 2 h. The plate was washed three times with a washing solution (50 mM Tris, 0.2% in PBS) and then incubated with 100 μL of blocking solution at room temperature for 1-2 h, followed by washing. HRP conjugated IgA antibody (1:30000) was added and then incubated at room temperature for 1 h, followed by washing. Thereafter, 100 μL of a substrate solution was added, followed by incubation for 30 min, and then 50 μL of a stop solution was added, followed by measurement at 405-450 nm by an ELISA reader. […]
# BMDMs = assay: Global gene expression profiling (RNA sequencing) of BMDMs; type: cell-based, mouse; conditions: GSEA (Enrichr)
# Description: (A-E) Global gene expression analysis. Total mRNA from BMDMs treated with either AmTARS (0.5 μM) or Pam3 (10 ng ml-1) for 1 or 3 h was isolated and analyzed by RNA sequencing (A). Principle components analysis (PCA) of the gene expression profiles for each sample (B). Hierarchical clustering of gene expression profiles from each sample identified cluster 3 and 4 (C). Gene set enrichment analysis (GSEA) of clusters 3 and 4 with respect to terms related to inflammation (D). […] (F) Overview of the experimental procedures for zebrafish. The yolk of Tg (NFκB:EGFP) transgenic zebrafish larvae (3 dpf) was injected with PBS or AmTARS. Injected larvae were treated at 3 and 5 dpf with 0.5% DSS for 24 h, with a washing period with fresh water for 24 h in between. Sample collection and analysis of Tg (NFκB:EGFP)-based EGFP intensity were conducted at 6 dpf. (G) Representative confocal images showing NF-κB signaling in the mid-distal intestines of PBS- or AmTARS-injected larvae with or without DSS treatment. White dashed lines denote the boundaries of the intestines (based on merged DIC bright field images). (H) Bar graph comparing the fluorescence intensity of the mid-distal intestines of PBS- or AmTARS-injected larvae treated (or not) with DSS (n=32 per PBS group and n=35 per DSS group). (I) Schematic model of the role of AmTARS in maintaining immune homeostasis via TLR2-mediated anti-inflammatory signaling pathways. Data shown in (A-C) are representative and repeated twice. Data shown in (H) are representative of three independent experiments, each similar results (mean±SEM). P-values were calculated by unpaired and two-tailed Student's t-test.
# We next performed global gene expression profiling of BMDMs treated with AmTARS or Pam3 for 1 or 3 h (FIG. 32A). […] Subsets of genes showing different expression patterns between AmTARS and Pam3 were classified into six clusters by hierarchical clustering analysis (FIGS. 33A and 33B). The gene expression pattern at 3 h was particularly different for clusters 3 and 4 (FIGS. 32C, 33A, and 33B). […]
# [2] = DSS-induced colitis mice, i.p., AmTARS 0.2 mg/kg
# [3] = DSS-induced colitis mice, particularly proximal colon, versus control mice
# [4] = i.p. 0.05-0.4 mg/kg once every other day for 10 days
# [5] = inflammatory bowel disease mouse model
# [6] = normal mice (control of B cell-deficient experiment)
molecule,measurement,setting,value
B1,secretion of IL-6,human macrophages (THP1),reduced in a dose-dependent manner
same,secretion of IL-10,human macrophages (THP1),increased in a dose-dependent manner
same,secretion of TNF-α,human macrophages (THP1),reduced in a dose-dependent manner
same,therapeutic effects on colitis pathology,[1]; AmTARS 0.2 mg kg-1 versus mIL-10 0.02 mg kg-1,comparable with those of IL-10
same,IL-10-positive macrophage (CD11b+F4/80+IL-10+) numbers within colonic cells,[1]; DSS-induced colitis mice,restored
same,IL-10 levels in serum,[1]; DSS-induced colitis mice,increased
same,body weight loss,[1]; [2],ameliorated
same,colon shortening / shortening of the intestine,[1]; [2],ameliorated
same,disease activity scores,[1]; [2],ameliorated
same,disruption of the epithelial lining,[1]; [3],significantly lower
same,epithelial damage score,[1]; [3],significantly lower
same,colitis-induced infiltration of inflammatory monocytes (CD11b+F4/80−),"[1]; colon cells, DSS-induced colitis mice",significantly suppressed
same,body weight loss,"[1]; i.p. 0.4 mg/kg, up to 7 days",significantly attenuated
same,"body weight loss, dose response",[1]; [4],attenuated body weight loss and colon shortening in a dose-dependent manner
same,"colon shortening, dose response",[1]; [4],attenuated body weight loss and colon shortening in a dose-dependent manner
same,secretion of the cytokine IL-10 in the mouse plasma,[1]; [5],increased the secretion
same,distribution of B cells in the colon,[1]; [5],increase in B cells
same,distribution of B cells in the colon,"[1]; inflammatory bowel disease mouse model, listed as TARS",significantly increased
same,amount of IgA increased due to an inflammatory response,"[1]; mouse feces, ELISA",reduced the amount of IgA
same,colon tissue damage due to inflammatory bowel disease,[1]; [6],alleviated
same,intestine length reduction due to inflammatory bowel disease,[1]; [6],alleviated
same,transcription factors associated with up-regulated genes,BMDMs,up-regulation of the anti-inflammation-related transcription factor CREB
